This note sets out measurements from patent US20040023858A1, “Antifungal combination therapy” (priority 2000, published 2004).

The test system of the assay is Candida albicans FP633. Kind of assay: Survival of neutropenic mice with disseminated candidiasis (G-CSF and Test Compound, alone and combined). The format is in vivo, ICR mice. Conditions: C. albicans, day 6 after infection. Here is the method:
Disseminated candidiasis were induced in ICR mice by the intravenous inoculation of 0.2 ml of cell suspension of Candida albicans FP633 via their lateral tail veins. Cyclophosphamide was administered intraperitoneally at 200 mg/kg 4 days before and 1 day after infection. G-CSF was administered intraperitoneally once daily for 5 days starting at 3 days before infection. Test Compound was administered once daily for 4 days starting at 1 hour after infection by intravenous injection. The survival rate (%) was calculated at 6 days after infection.
1) Survival rate of neutropenic mice infected with C. albicans on day 6 after infection

`CCCCCOc1ccc(-c2cc(-c3ccc(C(=O)NC4CC(O)C(O)NC(=O)C5C(O)C(C)CN5C(=O)C(C(O)CC(N)=O)NC(=O)C(C(O)C(O)c5ccc(O)c(OS(=O)(=O)[O-])c5)NC(=O)C5CC(O)CN5C(=O)C(C(C)O)NC4=O)cc3)no2)cc1.[Na+]` (stereo not shown) [Test Compound]: for the setting “Test Compound 0.2 mg/kg i.v. once daily for 4 days, G-CSF 0 μg/kg, cyclophosphamide-treated neutropenic ICR mice”, the Survival rate is reported as 25%.

B1: G-CSF: granulocyte colony stimulating factor, stimulates the production of white blood cells (protein, UniProt P09919 31-207, looked up)
Granulocyte …: TPLGPASSLPQSFLLKCLEQVRKIQGDGAALQEKLVSECATYKLCHPEELVLLGHSLGIPWAPLSSCPSQALQLAGCLSQLHSGLFLYQGLLQALEGISPELGPTLDTLQLDVADFATTIWQQMEELGMAPALQPTQGAMPAFASAFQRRAGGVLVASHLQSFLEVSYRVLRHLAQP
Regarding B1, the Survival rate by setting is: (G-CSF 2.5 μg/kg i.p. once daily for 5 days, Test Compound 0 mg/kg, neutropenic ICR mice) 0%; (G-CSF 5 μg/kg i.p. once daily for 5 days, Test Compound 0 mg/kg, neutropenic ICR mice) 25%; (G-CSF 10 μg/kg i.p. once daily for 5 days, Test Compound 0 mg/kg, neutropenic ICR mice) 50%.
